According to paper PMC5312596, “A novel Pfs38 protein complex on the surface of Plasmodium falciparum blood-stage merozoites” (Malaria Journal, 2017):

B1: recombinant Pfs38 (6-Cys domain, aa 153–328) (domain or fragment)
chain: KIPGCDFNADYKESTAITTFSNMSPRRVKVCDVYPKSGDFISLMCPSDYSIKPDGCFSNVYVKRYPNEEVKEEDRFNLNRKWDASKYNVVSIETVLKMNMITQGDKYSIFSKLPDVKDQVDFTCICQSNDEQDNLMMNVYINNTSYLTNNTRSIGVNKHSFSNSEIFERIEREEIS
notes: Pfs38, Plasmodium falciparum 6-Cys protein; 6-Cys domain aa 153-328, amplified from a codon-optimised synthetic gene (aa 22-328) and cloned in pET28b between NcoI and XhoI; Cloning in pET28b between NcoI and XhoI would give a C-terminal His6 (surmised); The forward primer adds a few residues (Met-Gly-Ser) before the insert (surmised from the primer); also called rPfs38
B2: recombinant GLURP R2 (domain or fragment)
chain: DGPVPSKPFEEIEKVDVQPKIVDLQIIEPNFVDSQPNPQEPVEPSFVKIEKVPSEENKHASVDPEVKEKENVSEVVEEKQNSQESVEEIPVNEDEFEDVHTEQLDLDHKTVDPEIVEVEEIPSELHENEVAHPEIVEIEEVFPEPNQNNEFQEINEDDKSAHIQHEIVEVEEILPEDDKNEKVEHEIVEVEEILPEDKNEKGQHEIVEVEEILPEDDKNEKVEHEIVEVEEILPEDKNEKGQHEIVEVEEILPEDKNEKVEHEIVEVEEILPEDKNEKGQHEIVEVEEILPEDKNEKVQHEIVEVEEILPEDKNEKGQHEIVEVEEILPEEDKNEKGQHEIVEVEEILPEDKNEKVQHEIVEVEEILPEDKNEKVQHEIVEVEEILPEIVEIEEVPSQTNNNENIETIKPEEKKNEFSVEEKAIPQEPVVPTLNENENVTPKPSEGESTKPDIVQIKIVQENKPNKKETPVVDG
modifications: Limits are not printed. The conventional GLURP R2 fragment (705-1178, F32 strain, 1271-aa GLURP) is assumed. The 3D7 orthologue is Q8IJ56.

Experiments:
[1] = target: T1, recombinant PfMSP-1_(65) (aa 1052–1664) (Plasmodium falciparum 3D7, UniProt Q8I0U8 1052-1664); assay: far-Western, overlay or dot blot; 1-5 µg recombinant protein separated by SDS-PAGE, blotted, denatured and renatured; membrane incubated with 2 µg/mL purified GLURP R2, Pfs38 or SERA-5 in 100 mM NaCl, 20 mM Tris pH 7.6, 0.5 mM EDTA, 10% glycerol, 1 mM DTT, 2 h at RT; detected with antisera to the soluble protein; conditions: both partners purified
T1 construct: Merozoite surface protein 1 (MSP-1), Plasmodium falciparum 3D7, aa 1052-1664, amplified from 3D7 cDNA and cloned in pET28b (NcoI/XhoI); Cloning in pET28b between NcoI and XhoI would give a C-terminal His6 (surmised); also called rPfMSP-1_(65); source: E. coli BL21, soluble, purified (Ni-NTA)
T1 sequence: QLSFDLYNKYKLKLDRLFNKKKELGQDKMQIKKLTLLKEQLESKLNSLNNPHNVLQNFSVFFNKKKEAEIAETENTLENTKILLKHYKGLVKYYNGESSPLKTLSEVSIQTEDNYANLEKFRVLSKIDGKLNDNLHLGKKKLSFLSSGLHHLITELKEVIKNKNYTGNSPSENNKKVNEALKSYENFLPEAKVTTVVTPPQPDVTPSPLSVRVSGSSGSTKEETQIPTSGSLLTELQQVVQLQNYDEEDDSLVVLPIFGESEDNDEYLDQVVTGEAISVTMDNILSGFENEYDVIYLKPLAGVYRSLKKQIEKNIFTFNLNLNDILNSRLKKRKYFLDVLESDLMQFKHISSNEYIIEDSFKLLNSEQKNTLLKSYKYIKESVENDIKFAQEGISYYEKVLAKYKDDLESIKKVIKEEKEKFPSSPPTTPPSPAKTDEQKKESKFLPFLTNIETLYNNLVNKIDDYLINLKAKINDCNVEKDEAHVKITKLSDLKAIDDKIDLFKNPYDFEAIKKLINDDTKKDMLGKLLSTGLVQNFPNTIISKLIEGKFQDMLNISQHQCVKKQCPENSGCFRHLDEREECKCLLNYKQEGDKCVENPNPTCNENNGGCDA

[2] = target: B1; assay: SPR; BIACORE 2000, 37 °C, HBS-EP buffer; GLURP R2 immobilised (up to 400 RU) on CM5 chip; Pfs38 injected at increasing concentrations, 20 µL/min; 1:1 Langmuir fit; conditions: both partners purified

Row | Binder | binding result [1] | Kd [2] [nM]
1 | B1 | binds | 
2 | B2 |  | 26
